Test results from the Human Domainome abundance scans (Beltran et al. 2025).
± gives the uncertainty stated by the source.

test: abundance fitness (aPCA) (normalised: wild type 0, dead -1); higher = more abundant; growth selection in yeast, the domain comes from the species named; details: Homo sapiens

Substance	abundance fitness
Scaffold attachment factor B1 R60Y, Q15424	-0.642 ± 0.11
Scaffold attachment factor B1 S32C, Q15424	-0.32 ± 0.077
Scaffold attachment factor B1 S32D, Q15424	-0.236 ± 0.088
Scaffold attachment factor B1 S32E, Q15424	-0.419 ± 0.11
Scaffold attachment factor B1 S32F, Q15424	-0.344 ± 0.083
Scaffold attachment factor B1 S32G, Q15424	-0.235 ± 0.064
Scaffold attachment factor B1 S32H, Q15424	-0.493 ± 0.1
Scaffold attachment factor B1 S32K, Q15424	-0.173 ± 0.088
Scaffold attachment factor B1 S32L, Q15424	-0.294 ± 0.071
Scaffold attachment factor B1 S32M, Q15424	-0.21 ± 0.067
Scaffold attachment factor B1 S32N, Q15424	-0.59 ± 0.1
Scaffold attachment factor B1 S32P, Q15424	-0.514 ± 0.083
Scaffold attachment factor B1 S32R, Q15424	-0.114 ± 0.057
Scaffold attachment factor B1 S32T, Q15424	-0.217 ± 0.089
Scaffold attachment factor B1 S32V, Q15424	-0.174 ± 0.059
Scaffold attachment factor B1 S32W, Q15424	-0.419 ± 0.053
Scaffold attachment factor B1 S32Y, Q15424	-0.331 ± 0.082
Scaffold attachment factor B1 S50A, Q15424	-0.2 ± 0.062
Scaffold attachment factor B1 S50C, Q15424	-0.226 ± 0.072
Scaffold attachment factor B1 S50E, Q15424	-0.278 ± 0.078
Scaffold attachment factor B1 S50F, Q15424	-0.259 ± 0.08
Scaffold attachment factor B1 S50G, Q15424	-0.257 ± 0.063

Substance	abundance fitness
Scaffold attachment factor B1 S50H, Q15424	-0.099 ± 0.072
Scaffold attachment factor B1 S50I, Q15424	-0.292 ± 0.096
Scaffold attachment factor B1 S50K, Q15424	-0.558 ± 0.11
Scaffold attachment factor B1 S50L, Q15424	-0.234 ± 0.058
Scaffold attachment factor B1 S50M, Q15424	-0.302 ± 0.097
Scaffold attachment factor B1 S50N, Q15424	-0.316 ± 0.091
Scaffold attachment factor B1 S50P, Q15424	-0.191 ± 0.058
Scaffold attachment factor B1 S50Q, Q15424	-0.166 ± 0.086
Scaffold attachment factor B1 S50R, Q15424	-0.365 ± 0.06
Scaffold attachment factor B1 S50T, Q15424	-0.312 ± 0.093
Scaffold attachment factor B1 S50V, Q15424	-0.236 ± 0.068
Scaffold attachment factor B1 S50W, Q15424	-0.226 ± 0.068
Scaffold attachment factor B1 S50Y, Q15424	-0.248 ± 0.074
Scaffold attachment factor B1 S51A, Q15424	-0.299 ± 0.071
Scaffold attachment factor B1 S51C, Q15424	-0.217 ± 0.07
Scaffold attachment factor B1 S51E, Q15424	-0.247 ± 0.078
Scaffold attachment factor B1 S51F, Q15424	-0.389 ± 0.085
Scaffold attachment factor B1 S51G, Q15424	-0.111 ± 0.058
Scaffold attachment factor B1 S51H, Q15424	-0.26 ± 0.11
Scaffold attachment factor B1 S51I, Q15424	-0.153 ± 0.089
Scaffold attachment factor B1 S51K, Q15424	-0.327 ± 0.093
Scaffold attachment factor B1 S51L, Q15424	-0.197 ± 0.061

Substance	abundance fitness
Scaffold attachment factor B1 S51M, Q15424	-0.284 ± 0.07
Scaffold attachment factor B1 S51N, Q15424	-0.167 ± 0.1
Scaffold attachment factor B1 S51P, Q15424	-0.879 ± 0.11
Scaffold attachment factor B1 S51Q, Q15424	-0.271 ± 0.079
Scaffold attachment factor B1 S51R, Q15424	-0.141 ± 0.076
Scaffold attachment factor B1 S51T, Q15424	-0.326 ± 0.081
Scaffold attachment factor B1 S51V, Q15424	-0.118 ± 0.061
Scaffold attachment factor B1 S51W, Q15424	-0.55 ± 0.088
Scaffold attachment factor B1 S51Y, Q15424	-0.472 ± 0.11
Scaffold attachment factor B1 S55A, Q15424	-0.207 ± 0.076
Scaffold attachment factor B1 S55D, Q15424	-0.187 ± 0.082
Scaffold attachment factor B1 S55E, Q15424	-0.092 ± 0.069
Scaffold attachment factor B1 S55F, Q15424	-0.223 ± 0.054
Scaffold attachment factor B1 S55G, Q15424	-0.144 ± 0.066
Scaffold attachment factor B1 S55H, Q15424	-0.291 ± 0.091
Scaffold attachment factor B1 S55I, Q15424	-0.261 ± 0.09
Scaffold attachment factor B1 S55K, Q15424	-0.229 ± 0.093
Scaffold attachment factor B1 S55L, Q15424	-0.147 ± 0.049
Scaffold attachment factor B1 S55M, Q15424	-0.12 ± 0.072
Scaffold attachment factor B1 S55N, Q15424	-0.13 ± 0.08
Scaffold attachment factor B1 S55P, Q15424	-0.429 ± 0.1
Scaffold attachment factor B1 S55Q, Q15424	-0.133 ± 0.059

Substance	abundance fitness
Scaffold attachment factor B1 S55R, Q15424	-0.083 ± 0.06
Scaffold attachment factor B1 S55T, Q15424	-0.199 ± 0.071
Scaffold attachment factor B1 S55V, Q15424	-0.081 ± 0.055
Scaffold attachment factor B1 S55W, Q15424	-0.287 ± 0.056
Scaffold attachment factor B1 S55Y, Q15424	-0.307 ± 0.08
Scaffold attachment factor B1 S79A, Q15424	-0.127 ± 0.065
Scaffold attachment factor B1 S79C, Q15424	-0.286 ± 0.077
Scaffold attachment factor B1 S79E, Q15424	-0.288 ± 0.097
Scaffold attachment factor B1 S79F, Q15424	-0.239 ± 0.08
Scaffold attachment factor B1 S79G, Q15424	-0.119 ± 0.062
Scaffold attachment factor B1 S79H, Q15424	-0.266 ± 0.086
Scaffold attachment factor B1 S79K, Q15424	-0.229 ± 0.1
Scaffold attachment factor B1 S79L, Q15424	-0.118 ± 0.068
Scaffold attachment factor B1 S79M, Q15424	-0.136 ± 0.063
Scaffold attachment factor B1 S79N, Q15424	-0.264 ± 0.091
Scaffold attachment factor B1 S79P, Q15424	-0.108 ± 0.06
Scaffold attachment factor B1 S79Q, Q15424	-0.443 ± 0.11
Scaffold attachment factor B1 S79R, Q15424	-0.25 ± 0.081
Scaffold attachment factor B1 S79T, Q15424	-0.129 ± 0.062
Scaffold attachment factor B1 S79V, Q15424	-0.131 ± 0.06
Scaffold attachment factor B1 S79W, Q15424	-0.409 ± 0.087
Scaffold attachment factor B1 S79Y, Q15424	-0.286 ± 0.078

Substance	abundance fitness
Scaffold attachment factor B1 T26A, Q15424	-0.282 ± 0.12
Scaffold attachment factor B1 T26C, Q15424	-0.22 ± 0.079
Scaffold attachment factor B1 T26D, Q15424	-0.915 ± 0.36
Scaffold attachment factor B1 T26E, Q15424	-0.242 ± 0.13
Scaffold attachment factor B1 T26G, Q15424	-0.304 ± 0.071
Scaffold attachment factor B1 T26I, Q15424	-0.314 ± 0.14
Scaffold attachment factor B1 T26K, Q15424	-0.31 ± 0.14
Scaffold attachment factor B1 T26L, Q15424	-0.518 ± 0.15
Scaffold attachment factor B1 T26M, Q15424	-0.213 ± 0.12
Scaffold attachment factor B1 T26N, Q15424	-0.936 ± 0.37
Scaffold attachment factor B1 T26P, Q15424	-0.565 ± 0.16
Scaffold attachment factor B1 T26Q, Q15424	-1.01 ± 0.34
Scaffold attachment factor B1 T26S, Q15424	-0.452 ± 0.099
Scaffold attachment factor B1 T26V, Q15424	-0.417 ± 0.12
Scaffold attachment factor B1 T26W, Q15424	-0.355 ± 0.075
Scaffold attachment factor B1 T28A, Q15424	-0.519 ± 0.083
Scaffold attachment factor B1 T28D, Q15424	-0.257 ± 0.1
Scaffold attachment factor B1 T28E, Q15424	-0.261 ± 0.08
Scaffold attachment factor B1 T28F, Q15424	-0.142 ± 0.084
Scaffold attachment factor B1 T28G, Q15424	-0.337 ± 0.055
Scaffold attachment factor B1 T28H, Q15424	-0.434 ± 0.09
Scaffold attachment factor B1 T28I, Q15424	-0.038 ± 0.065
